The values that follow come from patent US7919236 (GIVAUDAN, dated 2011).

What all share (experiment): cell-based or functional assay
Experiment [1] has as its target human TAS2R16 bitter receptor (human) (UniProt Q9NYV7).
Experiment [2] concerns the target T1, mouse T2R5 bitter receptor (mouse, UniProt Q9JKT4 1-300).
T1 sequence (looked up): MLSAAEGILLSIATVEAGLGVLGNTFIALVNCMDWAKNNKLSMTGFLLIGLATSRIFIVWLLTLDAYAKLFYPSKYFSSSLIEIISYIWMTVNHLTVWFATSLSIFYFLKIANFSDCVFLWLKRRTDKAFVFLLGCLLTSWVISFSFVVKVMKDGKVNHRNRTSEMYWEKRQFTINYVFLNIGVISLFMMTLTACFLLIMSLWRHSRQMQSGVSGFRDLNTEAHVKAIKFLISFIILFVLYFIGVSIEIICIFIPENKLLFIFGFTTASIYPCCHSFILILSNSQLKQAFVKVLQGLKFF

Experiment [3] concerns the target human TAS1R2/TAS1R3 sweet taste receptor heterodimer (human) (UniProt Q8TE23).
The target in experiment [4] is human TAS1R2/TAS1R3 sweet taste receptor heterodimer (human, UniProt Q8TE23 20-839; Q7RTX0 21-852).
human TAS1R2/TAS1R3 sweet taste receptor heterodimer, sequence (Q8TE23 20-839, chain 1 of 2): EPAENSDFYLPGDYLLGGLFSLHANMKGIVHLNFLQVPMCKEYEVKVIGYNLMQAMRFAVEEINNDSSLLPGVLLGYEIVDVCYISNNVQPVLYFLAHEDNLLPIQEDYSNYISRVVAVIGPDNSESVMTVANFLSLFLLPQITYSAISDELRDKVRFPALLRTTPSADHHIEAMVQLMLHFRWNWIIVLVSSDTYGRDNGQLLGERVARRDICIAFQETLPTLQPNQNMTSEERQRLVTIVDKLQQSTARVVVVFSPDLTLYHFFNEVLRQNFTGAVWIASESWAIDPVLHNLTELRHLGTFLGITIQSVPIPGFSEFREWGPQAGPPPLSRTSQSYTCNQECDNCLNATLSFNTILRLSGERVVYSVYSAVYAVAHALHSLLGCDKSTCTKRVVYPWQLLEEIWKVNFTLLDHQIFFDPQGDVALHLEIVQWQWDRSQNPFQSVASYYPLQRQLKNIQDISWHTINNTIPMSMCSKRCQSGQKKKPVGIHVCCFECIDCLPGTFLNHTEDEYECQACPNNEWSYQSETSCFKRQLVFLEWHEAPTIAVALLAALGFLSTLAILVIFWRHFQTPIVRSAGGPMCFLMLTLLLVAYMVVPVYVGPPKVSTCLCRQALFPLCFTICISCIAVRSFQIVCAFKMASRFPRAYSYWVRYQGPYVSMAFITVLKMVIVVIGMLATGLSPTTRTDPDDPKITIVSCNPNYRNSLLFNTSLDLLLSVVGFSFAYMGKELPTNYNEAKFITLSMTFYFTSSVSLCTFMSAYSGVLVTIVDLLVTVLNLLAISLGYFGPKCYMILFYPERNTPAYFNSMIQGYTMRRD
human TAS1R2/TAS1R3 sweet taste receptor heterodimer, sequence (Q7RTX0 21-852, chain 2 of 2): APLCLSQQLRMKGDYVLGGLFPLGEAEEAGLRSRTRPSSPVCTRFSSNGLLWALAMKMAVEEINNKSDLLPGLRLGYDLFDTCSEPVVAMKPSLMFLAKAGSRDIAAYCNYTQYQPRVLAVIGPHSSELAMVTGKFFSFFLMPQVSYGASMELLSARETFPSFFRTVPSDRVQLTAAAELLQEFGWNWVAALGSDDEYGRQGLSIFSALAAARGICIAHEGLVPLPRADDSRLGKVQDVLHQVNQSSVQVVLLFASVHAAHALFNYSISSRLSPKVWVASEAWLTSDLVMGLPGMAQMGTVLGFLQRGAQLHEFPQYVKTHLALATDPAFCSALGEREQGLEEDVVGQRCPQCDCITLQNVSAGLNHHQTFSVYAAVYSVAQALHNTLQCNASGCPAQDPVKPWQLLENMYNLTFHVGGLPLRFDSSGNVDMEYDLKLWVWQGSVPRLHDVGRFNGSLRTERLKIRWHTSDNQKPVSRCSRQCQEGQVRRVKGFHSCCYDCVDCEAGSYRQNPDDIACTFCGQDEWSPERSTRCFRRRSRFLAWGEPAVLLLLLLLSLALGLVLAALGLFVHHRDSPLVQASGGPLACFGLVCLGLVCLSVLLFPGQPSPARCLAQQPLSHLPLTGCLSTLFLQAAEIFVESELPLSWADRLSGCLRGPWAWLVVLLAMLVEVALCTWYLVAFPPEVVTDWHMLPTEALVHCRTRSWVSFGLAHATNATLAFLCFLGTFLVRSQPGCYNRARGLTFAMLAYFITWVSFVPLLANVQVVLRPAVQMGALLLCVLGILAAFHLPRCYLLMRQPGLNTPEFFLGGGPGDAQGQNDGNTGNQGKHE

human TAS2R16 bitter receptor (human), sequence (Q9NYV7 whole entry): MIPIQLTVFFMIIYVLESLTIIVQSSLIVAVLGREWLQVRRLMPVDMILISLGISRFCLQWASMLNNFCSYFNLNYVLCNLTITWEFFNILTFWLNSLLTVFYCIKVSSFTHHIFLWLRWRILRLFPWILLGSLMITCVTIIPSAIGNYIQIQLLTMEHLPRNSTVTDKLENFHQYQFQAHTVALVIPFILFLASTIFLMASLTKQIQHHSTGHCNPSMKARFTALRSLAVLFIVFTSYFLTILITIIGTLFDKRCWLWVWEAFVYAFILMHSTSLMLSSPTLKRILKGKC
human TAS1R2/TAS1R3 sweet taste receptor heterodimer (human), sequence (Q8TE23 20-839, chain 1 of 2): as the sequence (Q8TE23 20-839, chain 1 of 2) above
human TAS1R2/TAS1R3 sweet taste receptor heterodimer (human), sequence (Q7RTX0 21-852, chain 2 of 2, further chain): as the sequence (Q7RTX0 21-852, chain 2 of 2) above

As for “wild-type Gα16 (from UniProt P30679 1-374)”, the increase in mean Fluo-4 calcium fluorescence over baseline after 5 mM phenyl-β-D-glucopyranoside in experiment [1] came to 3490 RFU. In addition, the increase in mean Fluo-4 calcium fluorescence over baseline after 10 µM cycloheximide in experiment [2] is 2570 RFU.
Regarding Gα15, the increase in mean Fluo-4 calcium fluorescence over baseline after 2.5 mM sucralose in experiment [3] stood at 1300 RFU.

B1: Gα16-gustducin44 chimeric G-protein (other)
chain: MARSLTWRCCPWCLTEDEKAAARVDQEINRILLEQKKQDRGELKLLLLGPGESGKSTFIKQMRIIHGAGYSEEERKGFRPLVYQNIFVSMRAMIEAMERLQIPFSRPESKHHASLVMSQDPYKVTTFEKRYAAAMQWLWRDAGIRACYERRREFHLLDSAVYYLSHLERITEEGYVPTAQDVLRSRMPTTGINEYCFSVQKTNLRIVDVGGQKSERKKWIHCFENVIALIYLASLSEYDQCLEENNQENRMKESLALFGTILELPWFKSTSVILFLNKTDILEEKIPTSHLATYFPSFQGPKQDAEAAKRFILDMYTRMYTGCVDGPEGSNLKKEDKEIYSHMTCATDTQNVKFVFDAVTDIIIKENLKDCGLF
For the molecule B1, the “fluorescence signal after 2.5 mM aspartame, acesulfame K or sucralose, relative to wild-type Gα16” value in experiment [4] is 2 fold vs wild-type Gα16. The “fluorescence signal after 10 uM cycloheximide, relative to wild-type Gα16” value in experiment [2] is 5 fold vs wild-type Gα16.
